B1: Cdh1: APC/C activator subunit (protein, UniProt P53197 1-566, looked up)
APC/C activator protein CDH1: MSTNLNPFMNNTPSSSPLKGSESKRVSKRPISSSSSASLLSSPSRRSRPSTVYGDRYIPSRTDIDFNSIVSISSMASVPALNPSSTEDQVEYQKERQAHETYNTLLKNELFGEMLSKDTVGSESSIDRIKNTRPSTRGNVHAENTTRHGYELERVSTPPPEAAGLEEFSPHSTPVTPRRLFTSQQDEITRPSSNSVRGASLLTYQQRKGRRLSAASLLQSQFFDSMSPVRPDSKQLLLSPGKQFRQIAKVPYRVLDAPSLADDFYYSLIDWSSTDVLAVALGKSIFLTDNNTGDVVHLCDTENEYTSLSWIGAGSHLAVGQANGLVEIYDVMKRKCIRTLSGHIDRVACLSWNNHVLTSGSRDHRILHRDVRMPDPFFETIESHTQEVCGLKWNVADNKLASGGNDNVVHVYEGTSKSPILTFDEHKAAVKAMAWSPHKRGVLATGGGTADRRLKIWNVNTSIKMSDIDSGSQICNMVWSKNTNELVTSHGYSKYNLTLWDCNSMDPIAILKGHSFRVLHLTLSNDGTTVVSGAGDETLRYWKLFDKPKAKVQPNSLIFDAFNQIR
B2: securin: separase inhibitor securin, APC/C substrate protein (protein, UniProt P40316 1-373, looked up)
Securin: MMPANEDKENNIVYTGNESSGINFPQTPAHLLKRSHSNILKPPVRLDQLKRDANSNNGNTLKYIQGGKEVSPTKRLHTHAQQQGRLPLAAKDNNRSKSFIFPETSNQSKDADLPQLQNTLSIRKNDQLRKLSQISRSRSRANHNDLLSNSRKLQKYGSVLGYNALPKMKSLVLKDLADSGKNEESSDDDEGNEDSESKLGKKLQSALLKQDSSDGENELNGGLGLFNEQGGLQQLIKNSTKNEQKTKNDKSDKTDDYDIEIAPQRQEPLPYVPEGYSPFQQDDIEKLKTFNSPYKLDLEDEDDTPDKVDLLPLEQIDEEGEKDETECITRNQEEGAALPLLSKNFKEVAAVPTMELVYSEEGLDPEELEDLVT
B3: Clb5: yeast S-phase cyclin, APC/C substrate protein (protein, UniProt P30283 1-435, looked up)
S-phase entry cyclin-5: MGENHDHEQSIKRNSMIYNENERQLCNSNLKILQNKRALSKNDSSSKQQVQDSKPRRALTDVPVNNNPLSQNKRIVAGSKAAKVRREENIRPIVSAVQKRQIYNDRTAAEQEEEEEEEGEDDDAASIVNKKRRIDAEGVSEIVGWQDLDYVEKDDTAMVAEYSAEIFAFLYRRELETLPSHNYLLDKTSKYYLRPSMRTILVDWLVEVHEKFQCYPETLFLSINLMDRFLAKNKVTMNKLQLLAVTSLFIAAKFEEVNLPKLAEYAYITDGAASKNDIKNAEMFMLTSLEFNIGWPNPLNFLRRISKADDYDPVNRNIGKFILEYAYCCHQFIHLPPSTVSAMAMYIARRMTNRNKNELWNGTLQHYSGGIDPIHDEAFQSLCIDLVKDIASSKTHLDSLILKYKKPRYGSVYFQTFKWCTSEMHSNFQNLFNLK

What was measured:
APC/C [1] = details: purified yeast components, 30 min; 20 (Mizrak & Morgan, 2019); cited from earlier work
From the text: It is therefore unlikely that activator dissociation is occurring during our measurements of substrate dissociation from APC/C^Cdh1 or APC/C^Cdc20. || page 6: Cdh1 in Supplementary Figure 6. 2. Fig. 1b. List human peptide sequences used in this study. Now added to Supplementary Figure 6. 3. APC/C-Cdh1 interaction stability and life-time. The SMOR assay is dependent on a stable APC/C-Cdh1 interaction, longer than the dwell times of APC/C-activator-substrate complexes. Can the authors measure the dwell time of APC/C bound to activator? Excellent point.

APC/C [2] = details: APC/C^Cdc20 vs APC/C^Cdh1; cited from earlier work
From the text: We find that the yeast securin ...

[3] = Aggregation / background fluorescence in SMOR assay; type: physicochemical
Experimental: To capture dynamic protein–protein interactions, dye-labeled substrate diluted in buffer C + BSA was added to the chamber containing immobilized proteins. Interactions were imaged by TIRF microscopy as described below. For optimal signal-to-noise ratio, peptide concentration was no greater than 1 nM. Protein substrates included Hsl1 aa 667–872 and a C-terminal HaloTag followed by a TAP tag, and were produced by translation in rabbit reticulocyte lysates using TnT Quick Coupled Transcription/Translation System (Promega) (see Supplementary Table 5 for plasmids). Protein was purified with magnetic IgG beads and labeled on the bead with JF549 or JF646 dye so that unbound dye could be washed away. Purified dye-labeled protein was then cleaved from the beads using TEV protease. Before adding substrate to the reaction chamber, oxygen scavenging reagents were added (10 nM protocatechuate-3,4-dioxygenase, 2.5 mM protocatechuic acid, and 1 mM Trolox)[41]. A detailed description of the SMOR analysis pipeline is found in Supplementary Note 1.

Row | Molecule | dissociation from the APC/C (in words) (APC/C [1]) | processivity of ubiquitylation (in words) (APC/C [2]) | aggregation / background (in words) [3]
1 | B1 | dissociation from the APC/C was not detected in 30 min | – | –
2 | B2 | – | more processive than that with APC/C^Cdh1 | tendency to aggregate and create excessive background fluorescence
3 | B3 | – | more processive than that with APC/C^Cdh1 | –

Reference: PMC8764033, “Single-molecule analysis of specificity and multivalency in binding of short linear substrate motifs to the APC/C” (Nature Communications, 2022)
